This is an account of results in patent US6448071.

Assay [1] has as its target SL9 loaded H-2 L^d (murine) (UniProt P01897). The experiment in a line: flow cytometry, direct saturation of FITC-30.5.7 Fab on peptide-loaded RMA-S L^d cells.
The target of assay [2] is QL9 loaded H-2 L^d (murine) (UniProt P01897). The assay is described as above.
Assay [3] concerns the target p2Ca loaded H-2 L^d (murine) (UniProt P01897). Described as above.
Assay [4] addresses pMCMV loaded H-2 L^d (murine) (UniProt P01897).
The target of assay [5] is H-2 L^d naturally loaded with endogenous peptides on cells (RENCA; MC57G L^d) (murine) (UniProt P01897). Put plainly: direct flow cytometry on RENCA cells. Background: A flow cytometer gives signals particle by particle.
H-2 L^d naturally loaded with endogenous peptides on cells (RENCA; MC57G L^d) (murine), sequence (P01897 25-362): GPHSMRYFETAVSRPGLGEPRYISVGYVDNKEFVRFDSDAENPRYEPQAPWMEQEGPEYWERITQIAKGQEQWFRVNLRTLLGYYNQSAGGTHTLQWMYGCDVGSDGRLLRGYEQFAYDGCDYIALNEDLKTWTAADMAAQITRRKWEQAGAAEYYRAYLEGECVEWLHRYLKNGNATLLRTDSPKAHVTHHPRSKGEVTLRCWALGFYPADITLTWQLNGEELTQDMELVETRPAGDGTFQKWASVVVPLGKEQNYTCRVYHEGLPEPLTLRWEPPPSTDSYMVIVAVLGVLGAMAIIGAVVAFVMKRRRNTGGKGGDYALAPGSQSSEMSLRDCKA
For assay [6], the target named is unloaded H-2 L^d on RMA-S L^d cells (murine) (UniProt P01897). Put plainly: direct flow cytometry on RMA-S L^d cells without added peptide.
unloaded H-2 L^d on RMA-S L^d cells (murine), sequence (P01897 25-309): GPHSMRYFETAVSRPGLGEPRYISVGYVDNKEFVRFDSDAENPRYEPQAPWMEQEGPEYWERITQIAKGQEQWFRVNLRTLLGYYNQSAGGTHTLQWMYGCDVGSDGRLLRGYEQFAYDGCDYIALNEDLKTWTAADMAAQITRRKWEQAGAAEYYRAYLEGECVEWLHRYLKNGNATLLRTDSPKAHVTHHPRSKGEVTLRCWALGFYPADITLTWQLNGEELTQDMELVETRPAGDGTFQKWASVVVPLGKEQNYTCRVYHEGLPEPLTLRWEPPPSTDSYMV
Assay [7] concerns the target p2Ca loaded H-2 L^d (murine) (UniProt P01897). The experiment in a line: flow cytometry competition with constant FITC-30.5.7 Fab on peptide-loaded RMA-S L^d cells.
The target in assay [8] is SIY loaded H-2 K^bm3 on T2 K^bm3 cells (mouse). Put plainly: direct flow cytometry on peptide-loaded T2 K^bm3 cells.
For assay [9], the target named is unloaded H-2 L^d on RMA-S L^d cells (murine) (UniProt P01897). Put plainly: direct flow cytometry on RMA-S L^d cells.
The target of assay [10] is SL9 loaded H-2 L^d (murine) (UniProt P01897). The experiment in a line: direct flow cytometry on peptide-loaded RMA-S L^d cells.
SL9 loaded H-2 L^d (murine), sequence (P01897 25-309): as above
Assay [11] has as its target tum^- loaded H-2 L^d (murine) (UniProt P01897). The assay is described as above.
Assay [12] has as its target SIY loaded H-2 K^b on T2 K^b cells (mouse) (UniProt P01901). Put plainly: direct flow cytometry on peptide-loaded T2 K^b cells.
For assay [13], the target named is pVSV loaded H-2 K^b on T2 K^b cells (mouse) (UniProt P01901). The description is as above.
pVSV loaded H-2 K^b on T2 K^b cells (mouse), sequence (P01901 22-369): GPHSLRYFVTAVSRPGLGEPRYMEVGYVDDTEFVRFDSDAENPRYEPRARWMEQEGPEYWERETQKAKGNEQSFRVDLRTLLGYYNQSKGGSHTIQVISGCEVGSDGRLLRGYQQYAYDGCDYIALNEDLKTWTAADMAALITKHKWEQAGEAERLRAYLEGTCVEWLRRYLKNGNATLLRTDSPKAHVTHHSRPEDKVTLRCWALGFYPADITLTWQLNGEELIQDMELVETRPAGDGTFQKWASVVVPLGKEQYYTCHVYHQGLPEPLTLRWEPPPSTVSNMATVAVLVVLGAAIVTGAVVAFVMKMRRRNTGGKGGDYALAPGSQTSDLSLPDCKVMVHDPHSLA

What is called Kd is the concentration at which binding is half-saturated. Read a high Kd as a looser complex.

soluble divalent 2C TcR/Ig, sequence (A2KF29 whole entry, looked up, tested part not stated): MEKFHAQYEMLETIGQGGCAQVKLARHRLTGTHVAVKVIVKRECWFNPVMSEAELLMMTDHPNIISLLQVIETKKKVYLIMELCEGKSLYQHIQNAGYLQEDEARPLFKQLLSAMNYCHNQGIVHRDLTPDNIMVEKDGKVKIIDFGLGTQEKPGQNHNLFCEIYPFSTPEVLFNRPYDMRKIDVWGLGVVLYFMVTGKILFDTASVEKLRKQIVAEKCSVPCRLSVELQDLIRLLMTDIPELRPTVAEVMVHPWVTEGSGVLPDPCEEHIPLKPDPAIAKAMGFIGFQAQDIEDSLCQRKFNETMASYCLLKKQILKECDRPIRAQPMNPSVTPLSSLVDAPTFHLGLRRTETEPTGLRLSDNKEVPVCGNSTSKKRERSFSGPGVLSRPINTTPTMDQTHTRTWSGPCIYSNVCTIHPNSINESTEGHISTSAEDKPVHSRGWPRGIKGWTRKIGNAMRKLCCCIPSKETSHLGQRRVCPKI
p2Ca loaded H-2 L^d (murine), sequence (P01897 25-309): as the sequence (P01897 25-309) above
SIY loaded H-2 K^b on T2 K^b cells (mouse), sequence (P01901 22-369): as the sequence (P01901 22-369) above
QL9 loaded H-2 L^d (murine), sequence (P01897 25-309): as the sequence (P01897 25-309) above
tum^- loaded H-2 L^d (murine), sequence (P01897 25-309): as above
pMCMV loaded H-2 L^d (murine), sequence (P01897 25-309): as above

Take FITC labeled 30.5.7 Fab: the Kd in [1] is 4.8 to 6.4 nM; in assay [2], 12.2 nM; in assay [3] it was 5.8 nM; in assay [4] it was 4.8 nM.

In [5], mAb 30.5.7 (antibody) yielded a fold increase of reactivity on γ-IFN treated cells (5-50 units/ml) over untreated cells of 5 to 6 fold. Further, the fold increase of mean channel fluorescence, cells at 27° C. against cells at 37° C. in assay [6] was 5 fold.

Consider “soluble divalent 2C TcR/Ig (from UniProt A2KF29)”, for which the Kapp in assay [7] was determined as 108 nM. Also, the MCF in [8] is 36 MCF; in assay [9], 10 MCF; in [10], 100 MCF; in [11] it was 10 MCF; in assay [12] it was 276 MCF; in assay [13], 14 MCF.
